# Laboratory results: patent publication US4843003
# System: Exonuclease III (Escherichia coli)
# Experiment: cleavage_in_vitro
# Conditions: 37 C, 66 mM Tris-HCl pH 8, 0.66 mM MgCl2
Substance,"activity (nucleotides/min) (digested from 5' protruding end, not from SstI 3' protruding end, 14.4 kb removed per end in 32 min)","activity (nucleotides/min) (after 25 s delay, one-way digestion, no sequence preference seen)"
"Bacteriophage lambda DNA SstI terminal fragments (24.8 kb and 22.6 kb), 5' 12-nt protruding end",450,–
"M13 mp18 with 4.5 kb EcoRI Drosophila Gart insert, SalI/SphI cut",–,450
